In the nanobody polyreactivity screen of Harvey et al. (2022):

Test: yeast display, Sf9 membrane polyspecificity reagent, FACS + sequencing; frameworks hold sequencing errors
In short: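 Sorting gates, low and high (top ~1%), were placed on anti-HA fluorescence to track expression and on streptavidin fluorescence to track reagent binding. A clone's polyreactivity label is taken from the gate it came out of. The reagent was 10% biotinylated, detergent-solubilized Sf9 membrane, applied for 1 hour at 4 °C to galactose-induced yeast display cells.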

Sequence	polyreactivity (PSR sort gate)
QVQLVESGGGLVQAGGSLRLSCAASGRIFRPYAMGWYRQAPGKERELVASISWRGSSTYYADSVKGRFTISRDNAKNTVYLQMNSLKPEDTAVYYCAARRYPTSGYAYWGQGTQVTVSS	high polyreactivity
QVQLVESGGGLVQAGGSLRLSCAASGRIFRRNAMGWYRQAPGKEREFVAAISYRGGSTYYADSVKGRFTISRDNAKNTVYLQMNSLKPEDTAVYYCAATGYGSAYNPYDHWGQGTQVTVSS	high polyreactivity
QVQLVESGGGLVQAGGSLRLSCAASGRIFRRNAMGWYRQAPGKERELVAAISSSGGRTYYADSVKGRFTISRDNAKNTVYLQMNSLKPEDTAVYYCATRESLEPGYYWGQGTQVTVSS	high polyreactivity
QVQLVESGGGLVQAGGSLRLSCAASGRIFRRYAMGWYREAPGKERELVAAITASGGITYYADSVKGRFTISRDNAKNTVYLQMNSLKPEDTAVYYCAARGSSGYDYWGQGTQVTVSS	high polyreactivity
QVQLVESGGGLVQAGGSLRLSCAASGRIFRRYAMGWYRQAPGKERELVAAISTRGGSTYYADSVKGRFTISRDNAKNTVYLPMNSLKPEDTAVYYCAAGRDPGYNNDDYWGQGTQVTVSS	high polyreactivity
QVQLVESGGGLVQAGGSLRLSCAASGRIFRRYAMGWYRQAPGKERELVADITYGVDSTYYADSVKGRFTISRDNAKNTVYLQMNSLKPEDTAVYYCNADRTEDLLYRFVGVTYGYWGQGTQVSVSS	high polyreactivity
QVQLVESGGGLVQAGGSLRLSCAASGRIFRRYAMGWYRQAPWKERELVAAISTSGVRTYYADSVKGRFTISRDNAKNTVYLQMNSLNPEDTAVYYCATVAGPPYDYWGQGTLVTVSS	high polyreactivity
QVQLVESGGGLVQAGGSLRLSCAASGRIFRSNAMGWYRQAPGKERELLAAISGSGSTTNYADSVKGRITISRDNAKNTVYLQMNSLKPEDTAVYYCATGKRGVSGRGFRYDYWGLGTQVTVSS	high polyreactivity
QVQLVESGGGLVQAGGSLRLSCAASGRIFRSNAMGWYRQAPRKERELVPAITSSDTSTYYADSVKGRFTISRDNAKNTVYLQMKSLKPEDTAVYYCAADFKPTGTNEPKELDYWGQGTQVTVSS	low polyreactivity
QVQLVESGGGLVQAGGSLRLSCAASGRIFRSNARGWYRPAPGKERELVAAISSNGGSTYYADSVKGRFTISRDNAKNTVYLQMNSLKPEDTAVYYCAARVYYPVRYGYWGQGTQVTVSS	high polyreactivity
QVQLVESGGGLVQAGGSLRLSCAASGRIFRSYTMGWYRQAPGKERELVAAISKTGSRTYYADSVKGRFTISRDNAKNTVYLQMNSLKPEDTAVYYCAALFVHSYRDDYWGQGTQVTVSS	high polyreactivity
QVQLVESGGGLVQAGGSLRLSCAASGRIFRTYAMGWYRQAPGKERELVAAISGRGGNTYYADSVKGRFTSSRDNAKNTVYLQMNSLKPEETAVYYCAASKPARDTQQRWVYAGYDYWGQGTQVTVSS	high polyreactivity
QVQLVESGGGLVQAGGSLRLSCAASGRIFRTYAMGWYRQAPGKERELVAAISYSGGSTFYADSVKGRFTISRDNAKNSVYLQMNSLKPESTAVYYCAADSRAKRYYWGQGTQVTVSS	high polyreactivity
QVQLVESGGGLVQAGGSLRLSCAASGRIFRVNSMGWYRQAPGKEREFVAAITKNGGSTYYADSVKGRFTISLDNANNTVYLQMNSLKPEDTAVYYCAVRAWDPYTGKCVYWGQGTQVTVSW	low polyreactivity
QVQLVESGGGLVQAGGSLRLSCAASGRIFRVYAMGWYRQAPGKERELVAAITSGGTTYADSVKGRFTISRDYAKNTVYLQMNSLKPEDTAVYYCAARYYIHRGYDYDYWGQGTQVTVSS	high polyreactivity
QVQLVESGGGLVQAGGSLRLSCAASGRIFRVYAMGWYRQAPGKERQLVAAISYSGGRTFYADSVKGRFTISRDNSKNTVYLQMNSLIPEDTAVYYCAAKSYYTQALPPLDYWGQCTQVTVSS	low polyreactivity
QVQLVESGGGLVQAGGSLRLSCAASGRIFRWNAMGWYRQAPGKERDLVAAISWRGANTYYADSVKGRFTISRDNAKNTVYLQMNSLKPEDTAVYYCARYSYRGSQSDSWGQGTQVTVSS	high polyreactivity
QVQLVESGGGLVQAGGSLRLSCAASGRIFRWYAMGWYRQAPGKERELVAAISSRGGSTYYADSVKGRFTISRDNAKNTVYLQMNSLKPEDTAVYYCAADTSGWQPRYDYWGQGTQVTVSS	high polyreactivity
QVQLVESGGGLVQAGGSLRLSCAASGRIFRWYAMGWYRQAPGKERELVAAISSSGGSTYYADSVKGRFTISRDNAKINVYLQMKSLKPEDTAVYYCNAEAVAYWSVPYNYWGQGTQVTVSS	high polyreactivity
QVQLVESGGGLVQAGGSLRLSCAASGRIFRWYAMGWYRQAPGKERELVAAITQGGGSTYYADSVKGRFTISRDNAKNTVYLQMNSLKPEDTAVYYCAARGRSVGSAGTSRYGYWGQGTQVTVSS	high polyreactivity
QVQLVESGGGLVQAGGSLRLSCAASGRIFRWYTMGWYRQAPGKERELVARISSGGITYYADSVKGPFTISRDNAKNTVYLQMNSLKPEDTAVYYCNTYVSRNFDYWGQGTQLTVSS	high polyreactivity
QVQLVESGGGLVQAGGSLRLSCAASGRIFRYNAKGWYRQAPGKERELVAAISRDGSTYYADSVKGRFTISRDNAKNTVYLQMKSLKPEDTAVYYCAAGYSRRGWRRAYNYWGQGTQVTVSS	high polyreactivity
QVQLVESGGGLVQAGGSLRLSCAASGRIFRYNAMGLYRQAPGKERELVAVITSRGGRTYYADSVKGRFTISRDNAKNTVYLQMNSLKPEDTAVYYCTAKRYRYYRWYFTGKYDYWGQGTQVTVSS	high polyreactivity
QVQLVESGGGLVQAGGSLRLSCAASGRIFRYNAMGWYRQAPGKERELVAAISTRGGNTYYADSVKGRFTISRDNAKNTVYLQMNSLKPEDTAVYYCNARSSLPYNYWGQGTQVTVSS	high polyreactivity
QVQLVESGGGLVQAGGSLRLSCAASGRIFRYNAMGWYRQAPGKERELVAAISWSGGSTYADSVKGRFTISRDNAKNTVYLQMNSLKPEDTAVYFCAADSSDLYVWGYDHGGQGTQVTVSS	low polyreactivity
QVQLVESGGGLVQAGGSLRLSCAASGRIFRYNAMGWYRQAPGKERELVAAITKGGGSTYYADSVKGRFTISRDNAKNTVYLQMTSLNPEDTGVYYCAARRAVYRGNYWGQGTKVTVSS	high polyreactivity
QVQLVESGGGLVQAGGSLRLSCAASGRIFRYNAMGWYRQAPGKERELVASINQRGGYTYYADSVKGRFTISRDNAKNTVYLQMNSLKPEDTAVYYCAADRPRGRETVYYWGQGTQVTVSS	high polyreactivity
QVQLVESGGGLVQAGGSLRLSCAASGRIFRYNAMGWYRQAPGKERELVASISSSGGSTYYADSVKGRFTISRDTAKNTVYLQMNCLKPEDTAVYYCSAYPGDRHSRINLGYWGQGTQVTVSS	high polyreactivity
QVQLVESGGGLVQAGGSLRLSCAASGRIFRYNAMGWYRQAPGKERELVATITSGGNTNYADSVKGRFTISRDNAKNTVYLQMISLKPEDTAVYYCNAAEPQWYDAYDYWGQGTQVTVSS	low polyreactivity
QVQLVESGGGLVQAGGSLRLSCAASGRIFRYNAMGWYRQAPGKEWELVAAIRFSGGSTYYADSVKGRFTLSRDNAKNTVYLHMNSLKPEDTAVYYCAKVYFRVQSGMDYWGQGTQVTVST	low polyreactivity
